Results published in paper PMC6504924.

Legend:
[1] = molecular target: NanoLuc:VEGFR2 fusion on cells (UniProt P35968); experiment: FRET or BRET; saturation binding on live HEK293T cells transiently expressing a NanoLuc:RTK fusion; increasing concentrations of DY605-labeled growth factor with and without excess (0.5 µM) unlabeled equivalent; 1.5 h at room temperature, OptiMEM; apparent affinities (EC50)
[2] = molecular target: NanoLuc:VEGFR2 fusion on cells (UniProt P35968)

Chain of NanoLuc:VEGFR2 fusion on cells (P35968 20-1356): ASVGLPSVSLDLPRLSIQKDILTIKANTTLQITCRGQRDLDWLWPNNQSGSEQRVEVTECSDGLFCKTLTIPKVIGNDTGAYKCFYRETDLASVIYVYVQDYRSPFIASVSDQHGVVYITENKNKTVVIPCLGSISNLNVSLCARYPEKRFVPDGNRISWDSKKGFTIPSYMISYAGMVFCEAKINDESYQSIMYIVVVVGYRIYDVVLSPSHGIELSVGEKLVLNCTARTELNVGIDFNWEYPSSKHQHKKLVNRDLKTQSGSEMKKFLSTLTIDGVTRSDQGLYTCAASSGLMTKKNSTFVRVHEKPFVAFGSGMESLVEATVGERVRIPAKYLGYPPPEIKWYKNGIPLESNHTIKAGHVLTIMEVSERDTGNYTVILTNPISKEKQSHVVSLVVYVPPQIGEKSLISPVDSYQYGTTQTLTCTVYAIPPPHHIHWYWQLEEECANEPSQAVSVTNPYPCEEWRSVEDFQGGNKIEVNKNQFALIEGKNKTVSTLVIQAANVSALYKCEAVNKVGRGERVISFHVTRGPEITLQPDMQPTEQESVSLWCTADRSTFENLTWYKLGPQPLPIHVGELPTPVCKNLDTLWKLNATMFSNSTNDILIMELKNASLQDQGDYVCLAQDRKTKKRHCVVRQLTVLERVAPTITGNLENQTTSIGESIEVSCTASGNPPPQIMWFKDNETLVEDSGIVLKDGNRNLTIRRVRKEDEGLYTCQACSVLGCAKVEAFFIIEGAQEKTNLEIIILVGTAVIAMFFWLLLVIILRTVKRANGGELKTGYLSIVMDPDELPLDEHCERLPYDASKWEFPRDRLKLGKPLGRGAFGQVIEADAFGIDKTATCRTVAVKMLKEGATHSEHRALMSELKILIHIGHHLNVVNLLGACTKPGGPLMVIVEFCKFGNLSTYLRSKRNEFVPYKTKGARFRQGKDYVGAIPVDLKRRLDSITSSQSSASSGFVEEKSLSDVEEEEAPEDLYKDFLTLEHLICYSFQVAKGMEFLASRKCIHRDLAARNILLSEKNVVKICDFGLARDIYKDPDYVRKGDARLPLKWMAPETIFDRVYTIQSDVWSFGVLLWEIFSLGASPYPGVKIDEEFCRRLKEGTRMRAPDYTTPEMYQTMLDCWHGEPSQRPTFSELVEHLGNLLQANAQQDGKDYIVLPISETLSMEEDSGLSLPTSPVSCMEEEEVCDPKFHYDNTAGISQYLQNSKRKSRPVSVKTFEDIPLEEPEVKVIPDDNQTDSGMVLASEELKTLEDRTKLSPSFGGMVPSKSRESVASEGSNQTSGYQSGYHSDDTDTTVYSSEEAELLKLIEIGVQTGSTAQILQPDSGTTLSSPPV

EC50 [1] [nM] | NFAT-luciferase reporter, 6 h stimulation; EC50 as fold against the unlabeled counterpart (printed as 'fold lower', weaker response) [2] [fold] | Substance
0.045 |  | CBT-labeled VEGF165a homodimer (vascular endothelial growth factor isoform VEGF165a labeled with DY605-PEG-CBT on the N-terminal cysteine) (ligand)
12 | > 120 | VEGF165a homodimer labeled with 5-fold molar excess of DY605-NHS-ester (ligand)
1.2 | > 120 | VEGF165a homodimer labeled with 2-fold molar excess of DY605-NHS-ester (ligand)
